# Source: IntAct's records for PubMed 18335997
# B1: Hemojuvelin (Homo sapiens), Q6ZVN8 (parent)
# chain: MGEPGQSPSPRSSHGSPPTLSTLTLLLLLCGHAHSQCKILRCNAEYVSSTLSLRGGGSSGALRGGGGGGRGGGVGSGGLCRALRSYALCTRRTARTCRGDLAFHSAVHGIEDLMIQHNCSRQGPTAPPPPRGPALPGAGSGLPAPDPCDYEGRFSRLHGRPPGFLHCASFGDPHVRSFHHHFHTCRVQGAWPLLDNDFLFVQATSSPMALGANATATRKLTIIFKNMQECIDQKVYQAEVDNLPVAFEDGSINGGDRPGGSSLSIQTANPGNHVEIQAAYIGTTIIIRQTAGQLSFSIKVAEDVAMAFSAEQDLQLCVGGCPPSQRLSRSERNRRGAITIDTARRLCKEGLPVEDAYFHSCVFDVLISGDPNFTVAAQAALEDARAFLPDLEKLHLFPSDAGVPLSSATLLAPLLSGLFVLWLCIQ
# partner: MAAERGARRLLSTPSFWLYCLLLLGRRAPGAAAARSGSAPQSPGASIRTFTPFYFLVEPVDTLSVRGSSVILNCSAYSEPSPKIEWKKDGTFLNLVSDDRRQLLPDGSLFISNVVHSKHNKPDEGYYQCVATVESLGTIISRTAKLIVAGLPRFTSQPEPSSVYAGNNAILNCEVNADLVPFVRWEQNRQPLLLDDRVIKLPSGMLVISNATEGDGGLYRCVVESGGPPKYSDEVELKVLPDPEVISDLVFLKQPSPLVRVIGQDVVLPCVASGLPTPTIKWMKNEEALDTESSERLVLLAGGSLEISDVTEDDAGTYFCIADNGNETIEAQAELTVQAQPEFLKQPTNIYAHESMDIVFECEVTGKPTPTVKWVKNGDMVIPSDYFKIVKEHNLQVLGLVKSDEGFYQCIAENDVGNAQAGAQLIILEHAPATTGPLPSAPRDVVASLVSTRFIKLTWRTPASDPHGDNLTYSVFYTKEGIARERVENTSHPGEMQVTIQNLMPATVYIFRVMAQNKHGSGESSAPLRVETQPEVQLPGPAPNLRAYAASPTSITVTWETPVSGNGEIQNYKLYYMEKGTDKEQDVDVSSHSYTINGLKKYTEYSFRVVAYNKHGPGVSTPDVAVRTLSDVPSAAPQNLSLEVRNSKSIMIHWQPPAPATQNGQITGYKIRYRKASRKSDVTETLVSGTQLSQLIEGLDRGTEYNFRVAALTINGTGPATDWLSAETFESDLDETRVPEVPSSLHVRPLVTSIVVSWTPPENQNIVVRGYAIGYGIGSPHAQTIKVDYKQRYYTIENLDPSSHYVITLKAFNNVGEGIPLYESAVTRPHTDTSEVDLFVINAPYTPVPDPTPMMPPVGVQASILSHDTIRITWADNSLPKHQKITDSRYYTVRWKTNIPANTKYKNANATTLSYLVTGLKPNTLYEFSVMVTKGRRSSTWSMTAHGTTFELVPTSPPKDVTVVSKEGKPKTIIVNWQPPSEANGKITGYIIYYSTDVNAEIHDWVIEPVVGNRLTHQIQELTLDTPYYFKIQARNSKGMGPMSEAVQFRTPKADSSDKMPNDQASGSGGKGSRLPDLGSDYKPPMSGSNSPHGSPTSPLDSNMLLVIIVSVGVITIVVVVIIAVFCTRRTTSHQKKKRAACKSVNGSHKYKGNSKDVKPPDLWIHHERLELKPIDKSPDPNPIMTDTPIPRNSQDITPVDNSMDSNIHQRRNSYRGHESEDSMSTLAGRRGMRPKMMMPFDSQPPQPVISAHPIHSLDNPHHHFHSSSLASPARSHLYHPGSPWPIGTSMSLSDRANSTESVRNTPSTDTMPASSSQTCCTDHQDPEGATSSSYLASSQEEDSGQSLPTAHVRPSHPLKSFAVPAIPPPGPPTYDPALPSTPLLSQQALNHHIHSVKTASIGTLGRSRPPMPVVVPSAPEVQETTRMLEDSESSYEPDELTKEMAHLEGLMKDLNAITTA
# Variants of: B1
# Settings: with neo1_human NEO1, Q92859
row,Variant,effect of a mutation on the interaction
1,MGEPGQSPSPRSSHGSPPTLSTLTLLLLLCGHAHSQCKILRCNAEYVSSTLSLRGGGSSGALRGGGGGGRGGGVGSGGLCRALRSYALCTRRTARTCRGDLAFHSAVHGIEDLMIQHNCSRQGPTAPPPPRGPALPGAGSGLPAPDPCDYEGRFSRLHGRPPGFLHCASFGAPHVRSFHHHFHTCRVQGAWPLLDNDFLFVQATSSPMALGANATATRKLTIIFKNMQECIDQKVYQAEVDNLPVAFEDGSINGGDRPGGSSLSIQTANPGNHVEIQAAYIGTTIIIRQTAGQLSFSIKVAEDVAMAFSAEQDLQLCVGGCPPSQRLSRSERNRRGAITIDTARRLCKEGLPVEDAYFHSCVFDVLISGDPNFTVAAQAALEDARAFLPDLEKLHLFPSDAGVPLSSATLLAPLLSGLFVLWLCIQ [D172A],decreasing interaction strength
